# Measurements from patent US10864269B2, “Therapeutic combinations comprising anti-CD73 antibodies and uses thereof” (MedImmune Limited, priority 2014, dated 2020).
# pKd: −log10 of the molar value.
# Key:
# human CD73 ECD = target: T1, human CD73 ECD (Homo sapiens, UniProt P21589); test: Surface plasmon resonance (ProteOn), human CD73; assay type: binding; settings: SPR
# T1 construct: made in house; host or cells: mammalian cells
# T1 sequence (P21589 27-549 limits assumed): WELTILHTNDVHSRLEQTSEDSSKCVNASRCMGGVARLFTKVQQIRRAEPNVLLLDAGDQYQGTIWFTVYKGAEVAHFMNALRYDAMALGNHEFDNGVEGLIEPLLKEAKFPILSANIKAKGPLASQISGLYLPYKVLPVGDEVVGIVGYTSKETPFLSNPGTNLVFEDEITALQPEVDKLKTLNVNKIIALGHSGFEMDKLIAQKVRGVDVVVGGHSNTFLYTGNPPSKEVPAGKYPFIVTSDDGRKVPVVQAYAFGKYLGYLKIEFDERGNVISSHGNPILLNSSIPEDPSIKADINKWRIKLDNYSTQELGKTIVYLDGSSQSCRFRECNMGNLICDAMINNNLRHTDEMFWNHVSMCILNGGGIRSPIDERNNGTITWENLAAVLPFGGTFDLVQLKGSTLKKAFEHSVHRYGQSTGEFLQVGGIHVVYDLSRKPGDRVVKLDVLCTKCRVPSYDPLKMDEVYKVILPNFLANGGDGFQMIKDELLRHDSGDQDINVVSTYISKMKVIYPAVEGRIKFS
# Method: A ProteOn XPR36 instrument was used to characterize binding of MEDI9447 to human, murine, and cynomolgus CD73 ECD. MEDI9447 was affinity-captured using an anti-human Fc antibody. CD73 ECD was in the mobile phase. The association and dissociation of CD73 to MEDI9447 could be accurately described with the Langmuir 1:1 model.
# (§1) The affinity of enhanced anti-CD73 antibodies (in IgG1-TM format) to human, murine, and cynomolgus CD73 was determined by flow cytometry and surface plasmon resonsance (SPR) (Table 13). The enhanced antibodies had pM affinity to cellular and recombinant CD73 from the three species.
# [1] = target: T2, native CD73, MDA-MB-231 cells (Homo sapiens, UniProt P21589); test: Flow cytometry binding to native CD73, MDA-MB-231 cells
# T2 construct: native CD73 expressed on human, murine, and cynomolgus monkey cell lines; endogenous in cells; host or cells: MDA-MB-231
# T2 sequence (P21589 27-549): T1 sequence (P21589 27-549 limits assumed)
# Method: (§2) Binding of MEDI9447 to native CD73 expressed on human, murine, and cynomolgus monkey cell lines was characterized by flow cytometry. The cells were incubated with various concentrations of MEDI9447 and antibody binding was monitored with and fluorophore-labeled anti-human Fc antibody. A plot of the median fluorescence intensity as a function of the MEDI9447 concentration was fitted nonlinearly using a one-site binding isotherm model to calculate the equilibrium dissociation constant.
# as §1
# (§3) All flow cytometry experiments were run at 4C and reagents were prepared in PBS/1% FBS buffer. 10,000 cells were incubated with test antibody in 50 uL volume for 4 hours. Cells were washed twice and incubated in 50 uL goat anti-human IgGFc-AlexaFluor647 conjugate for 15 minutes. Cells were washed, resuspended in buffer supplemented with Dapi, and analyzed on a flow cytometer. […] For the determination of KD values, a plot of the median fluorescence intensity as a function of test antibody concentration was fitted nonlinearly using a one site binding isotherm model.
# native CD73, MK-1 cells = test: Flow cytometry binding to native CD73, MK-1 cells; settings: as measured by flow cytometry; read-out: KD, CD73 on the surface of cynomolgus MK-1 cells
# Method: as §2, §1, §3
# MDA-MB-231 cells = test: FabZAP antibody internalization assay, MDA-MB-231; assay type: cell-based, human; settings: MDA-MB-231, 3 days
# Method: (§4) Internalization of MEDI9447 into cell lines MDA-MB-231 (human mammary carcinoma) and 4T1 (murine mammary carcinoma) was assessed using a human Antibody Internalization Kit that is sold commercially as the FabZAP assay (Advanced Targeting Systems, San Diego Calif.). Serial dilutions of MEDI9447 or negative control antibody R347 were pre-incubated with 40 nM FabZAP reagent (Fab fragment of a polyclonal anti-human IgG antibody conjugated to the cytotoxic protein saporin) and then added to the cell lines. After 3 days in culture, cell proliferation was measured using a luminescent cell viability assay sold commercially as the CELLTITER-GLO® assay (Promega, Madison Wis.). This assay was used to calculate EC50 values and maximum toxicity. […]
# (§5) Cell proliferation of MDA-MB-231 cells and 4T1 cells treated with serial dilutions of test antibody and FabZAP reagent was measured by CELLTITER-GLO® assay (FIG. 2). The signal from the negative control antibody R347 in the CELLTITER-GLO® assay was subtracted from the signal of MEDI9447 and the EC50 value and maximum toxicity were calculated by fitting the dose-response curve using non-linear regression analysis.
# (§6) 1,000 cells/well were cultured in 96 well plates in RPMI/10% FBS. […] After 3 days incubation at 37C, the cell proliferation was measured using the CELLTITER-GLO® assay (Promega, Madison Wis.).
# 4T1 cells = test: FabZAP antibody internalization assay, 4T1; assay type: cell-based, murine; settings: 4T1, 3 days
# Method: as §4, §5, §6
# huCD73 = target: T3, huCD73 (Homo sapiens, UniProt P21589); test: Solution binding, human CD73; settings: as measured by solution binding
# T3 sequence (P21589 27-549): T1 sequence (P21589 27-549 limits assumed)
# murine CD73 = target: T4, murine CD73 (Mus musculus, UniProt Q61503); test: Solution binding, murine CD73; settings: as measured by solution binding
# T4 sequence (Q61503 29-551): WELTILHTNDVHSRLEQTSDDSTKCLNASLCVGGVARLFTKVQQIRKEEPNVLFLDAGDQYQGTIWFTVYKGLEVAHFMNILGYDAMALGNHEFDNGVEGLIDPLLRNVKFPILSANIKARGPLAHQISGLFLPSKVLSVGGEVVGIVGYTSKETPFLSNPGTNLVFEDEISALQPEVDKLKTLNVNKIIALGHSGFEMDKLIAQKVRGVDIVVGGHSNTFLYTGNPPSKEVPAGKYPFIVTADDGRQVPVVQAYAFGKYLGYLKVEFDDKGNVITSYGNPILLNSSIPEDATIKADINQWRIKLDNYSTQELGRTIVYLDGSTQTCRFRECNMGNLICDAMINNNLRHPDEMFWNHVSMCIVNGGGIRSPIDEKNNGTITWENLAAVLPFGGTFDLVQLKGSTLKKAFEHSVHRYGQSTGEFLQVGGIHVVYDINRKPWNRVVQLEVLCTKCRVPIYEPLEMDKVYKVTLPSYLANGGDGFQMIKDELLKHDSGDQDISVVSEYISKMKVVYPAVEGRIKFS
substance,measurement,setting,value
MEDI9447: IgG1 with CD730010-derived VL of SEQ ID NO: 68 and VH of SEQ ID NO: 82,kd,human CD73 ECD; Human CD73 ECD,1.06e-05 s⁻¹
same,ka,"human CD73 ECD; antibody captured, Human CD73 ECD in mobile phase",2.57e+06 M⁻¹ s⁻¹
same,pKd,"[1]; as measured by flow cytometry, read-out: KD, CD73 on the surface of MB-MDA-231 cells",~9.82
same,"KD values by flow cytometry, fold greater than those determined by SPR","[1]; human, murine and cynomolgus CD73",13—126 fold
same,pKd,"native CD73, MK-1 cells",~10.10
same,maximum toxicity,MDA-MB-231 cells,97%
same,maximum toxicity,4T1 cells,97%
same,pKd,huCD73,~10.10
same,pKd,murine CD73,~9.89
